# Measured values taken from publication PMC11519390.
# B1: HA-tagged wildtype Drosophila CYRI [Drosophila] / GST-tagged constitutively active Rac1 [Drosophila] (parent)
# chain 1: MGKLLSLLSRDDSNCCAAKSYDVFLDFENAAPTETERAVYDEVERVLRESEVVLDEIQIYRGAGKEIREAIADPSPEVTAKAWAAVLPLVNKLKRCYEHSMELDKIVPKLLGQLVGGKLNPTQHLETQQALVKQLAEILEFVLKFDEYKMKTPAIQNDFSYYRRIVSRQRVDSTENMLVSTELANRMSLFYAHATPMLKVLSEATSKFVNDNADDVQNTTETLGTMAKVCLRMLENPKLLQQIEREDTKMLVLRVMVGLVILYDHVHPEGAFVRGAHVDVKGCVRLLQAQPAIKAEPLLNALRYTTKHLNGENTPKNIQRLLAA
# chain 2: not shown
# Variants of: B1
# Experiment: GST pull-down, western blot quantification
# Settings: with GST-tagged constitutively active Rac1 Q61L [Drosophila]; Signals normalized to loaded input (1% of the starting lysate material); three independent experiments; read off a plot
row,response (% bound input),Variant
1,0.015,chain 1 R163D R164D
